Assay results: patent US20200397886A1 (University of Washington, published 2020)

Biological target: T1, I53-50A
T1 construct: Trimeric nanostructure component without antigen, used in the 33% and 66% valency particles; also called I53-50A trimers
T1 chain: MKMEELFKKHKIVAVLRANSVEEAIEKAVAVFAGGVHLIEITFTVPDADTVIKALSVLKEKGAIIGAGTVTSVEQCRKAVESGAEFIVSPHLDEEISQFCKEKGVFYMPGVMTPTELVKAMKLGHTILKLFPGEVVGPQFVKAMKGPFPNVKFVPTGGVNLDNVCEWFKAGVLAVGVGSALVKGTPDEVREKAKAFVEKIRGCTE
Assay: in vitro co-assembly of partial valency particles

B1: I53-50B.4PosT1 (designed binder)
chain: MNQHSHKDHETVRIAVVRARWHAEIVDACVSAFEAAMRDIGGDRFAVDVFDVPGAYEIPLHARTLAETGRYGAVLGTAFVVNGGIYRHEFVASAVINGMMNVQLNTGVPVLSAVLTPHNYDKSKAHTLLFLALFAVKGMEAARACVEILAAREKIAA
notes: Pentameric nanostructure component expressed in E. coli; the N-terminal methionine is said to be optional; also called I53-50B.4PT1; I53-50B.4PT
binding result: binds
